For experiment [1], the target named is T1, human TPBG (trophoblast glycoprotein), full length, cell surface expressed (human, UniProt Q13641 32-420).
T1 sequence: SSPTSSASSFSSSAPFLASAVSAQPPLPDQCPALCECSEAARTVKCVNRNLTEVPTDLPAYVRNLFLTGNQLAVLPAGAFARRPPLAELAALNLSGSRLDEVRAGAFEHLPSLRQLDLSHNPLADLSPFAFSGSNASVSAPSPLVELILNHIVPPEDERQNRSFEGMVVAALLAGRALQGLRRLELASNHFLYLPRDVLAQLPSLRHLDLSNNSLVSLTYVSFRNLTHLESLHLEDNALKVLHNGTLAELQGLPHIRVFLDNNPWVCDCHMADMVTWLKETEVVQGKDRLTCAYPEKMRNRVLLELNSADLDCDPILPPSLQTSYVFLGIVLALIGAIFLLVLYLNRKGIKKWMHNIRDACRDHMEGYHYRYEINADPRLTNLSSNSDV
The experiment can be described thus: cell-based or functional assay.

The target of experiment [2] is T1, human TPBG (trophoblast glycoprotein), …. Briefly: cell-based or functional assay. The source holds these as a separate data set.
In experiment [3] the target is T2, minipig TPBG, full length, cell surface expressed on CHO-K1 cells (minipig).
T2 chain: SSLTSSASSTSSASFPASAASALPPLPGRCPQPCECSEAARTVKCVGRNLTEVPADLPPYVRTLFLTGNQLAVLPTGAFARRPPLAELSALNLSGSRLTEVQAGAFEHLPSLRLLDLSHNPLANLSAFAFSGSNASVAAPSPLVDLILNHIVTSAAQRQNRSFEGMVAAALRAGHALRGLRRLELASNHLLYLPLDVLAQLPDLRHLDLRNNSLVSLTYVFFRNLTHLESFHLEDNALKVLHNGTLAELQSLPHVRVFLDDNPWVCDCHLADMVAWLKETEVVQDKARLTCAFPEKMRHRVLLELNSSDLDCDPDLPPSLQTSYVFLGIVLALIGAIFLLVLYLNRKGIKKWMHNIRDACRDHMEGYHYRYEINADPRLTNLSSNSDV
Briefly: cell-based or functional assay.

The target of experiment [4] is T1, human TPBG (trophoblast glycoprotein), …. Briefly: cell-based or functional assay. This is another data set of the same source.
The target is the same in experiment [5]. Briefly: cell-based or functional assay. The source holds these as a separate data set.
Experiment [6] shares this target. The experiment can be described thus: cell ELISA on MCF7 cells; titrated from 5 µg/ml. (ELISA stands for enzyme-linked immunosorbent assay.)
The target in experiment [7] is T3, huTPBG (recombinant human TPBG immobilised on the Biacore chip) (human, UniProt Q13641 32-355, limits assumed).
T3 construct: also called human TPBG antigen
T3 sequence: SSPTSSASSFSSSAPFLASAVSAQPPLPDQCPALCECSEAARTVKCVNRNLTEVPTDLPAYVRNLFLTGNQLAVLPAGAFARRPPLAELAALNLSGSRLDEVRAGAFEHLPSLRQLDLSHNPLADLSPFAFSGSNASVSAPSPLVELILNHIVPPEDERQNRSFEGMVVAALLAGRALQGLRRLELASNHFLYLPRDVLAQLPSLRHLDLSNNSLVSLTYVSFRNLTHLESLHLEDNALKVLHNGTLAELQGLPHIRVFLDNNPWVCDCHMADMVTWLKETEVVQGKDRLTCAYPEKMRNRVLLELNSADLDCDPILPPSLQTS
Briefly: SPR Biacore T200; huTPBG amine-coupled, Fab injected.

For experiment [8], the target named is T1, human TPBG (trophoblast glycoprotein), …. Briefly: flow cytometry on SW620 clone 4 cells; ratio of MFI; replicate 1. For orientation: Flow cytometry measures light scatter and fluorescence of single cells or particles in a stream.
Experiment [9] has the same target. Briefly: flow cytometry on SW620 clone 4 cells; ratio of MFI; replicate 2.
Experiment [10] deals with T4, recombinant extracellular domain of minipig TPBG (Biacore analyte) (minipig).
T4 chain: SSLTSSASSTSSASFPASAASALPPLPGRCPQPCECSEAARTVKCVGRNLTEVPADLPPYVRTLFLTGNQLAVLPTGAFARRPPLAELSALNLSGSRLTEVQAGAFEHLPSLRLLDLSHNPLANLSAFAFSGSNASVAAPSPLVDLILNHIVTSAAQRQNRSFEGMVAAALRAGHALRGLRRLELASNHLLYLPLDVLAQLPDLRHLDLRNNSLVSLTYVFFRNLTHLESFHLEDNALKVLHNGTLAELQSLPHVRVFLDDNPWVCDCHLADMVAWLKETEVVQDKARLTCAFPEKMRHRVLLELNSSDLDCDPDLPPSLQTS
The experiment can be described thus: SPR Biacore T200; Fab captured by anti-huFab, minipig TPBG injected. Background: In SPR one partner is held on a chip, and binding of the other changes the refractive index at the surface.

Experiment [11] concerns the target T5, human TPBG extracellular domain, His6Avi, biotinylated (human, biotinylated).
T5 construct: also called huTPBG; human TPBG-AviHis
T5 chain: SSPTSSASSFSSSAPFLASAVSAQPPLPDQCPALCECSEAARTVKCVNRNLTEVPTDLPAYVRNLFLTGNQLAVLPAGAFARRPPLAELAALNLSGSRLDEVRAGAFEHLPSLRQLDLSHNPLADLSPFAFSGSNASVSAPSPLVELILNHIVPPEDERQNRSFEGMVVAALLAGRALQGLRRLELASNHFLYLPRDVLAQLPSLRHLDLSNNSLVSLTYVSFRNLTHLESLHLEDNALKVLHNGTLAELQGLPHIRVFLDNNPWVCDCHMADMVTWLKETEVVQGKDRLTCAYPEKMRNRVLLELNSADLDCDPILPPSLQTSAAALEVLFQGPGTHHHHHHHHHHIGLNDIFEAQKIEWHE
The experiment can be described thus: ELISA; biotinylated TPBG-AviHis on streptavidin plate; Fab titrated from 2 µg/ml.

The target of experiment [12] is T6, minipig TPBG extracellular domain, His6Avi, biotinylated (minipig, biotinylated).
T6 construct: also called mpTPBG; minipig TPBG-AviHis
T6 chain: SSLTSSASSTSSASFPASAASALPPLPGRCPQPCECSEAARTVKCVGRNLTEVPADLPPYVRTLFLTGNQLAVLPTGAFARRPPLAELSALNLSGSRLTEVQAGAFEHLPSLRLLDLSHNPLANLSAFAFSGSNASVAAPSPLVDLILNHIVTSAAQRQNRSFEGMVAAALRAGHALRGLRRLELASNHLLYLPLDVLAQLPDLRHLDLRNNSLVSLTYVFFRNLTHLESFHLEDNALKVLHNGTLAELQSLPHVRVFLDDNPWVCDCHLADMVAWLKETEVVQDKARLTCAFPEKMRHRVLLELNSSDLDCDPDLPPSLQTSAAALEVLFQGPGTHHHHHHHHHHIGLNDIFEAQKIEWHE
The description is as above.

The target of experiment [13] is T7, minipig TPBG extracellular domain, huIgG1-Fc-His (minipig).
T7 construct: also called Fc-TPBG (mp)
The experiment can be described thus: ELISA; Fc-TPBG coated; mAb titrated from 1 µg/ml.

Experiment [14] concerns the target T8, human TPBG extracellular domain, huIgG1-Fc-His6 (human).
T8 construct: also called Fc-TPBG (hu)
Briefly: ELISA; Fc-TPBG coated; mAb titrated from 1 µg/ml.

The values that follow come from patent publication US20180311371A1 (Hoffmann-La Roche, published 2018).

As usually defined, the EC50 is the concentration needed to bring the measured effect to its halfway point. A higher EC50 goes with lower potency in that assay. For orientation: Kd means the constant that tells how readily two partners part at equilibrium. Usually koff stands for the rate constant with which the complex falls apart. As a reminder, the kon is the second-order rate constant of association.

B1: anti-TPBG antibody 097, Fab fragment (Fab, V domains shown)
VH: EVQLLESGGGLAQPGGSLRLSCAASGFTFNNDAMTWVRQAPGKGLEWVSAISGSGGSTYYADSVKGRFTISRDNSKNTLYLQMNSLRAEDTAVYYCAKGGSWGDWYYYFYPMDVWGQGTTVTVSS
VL: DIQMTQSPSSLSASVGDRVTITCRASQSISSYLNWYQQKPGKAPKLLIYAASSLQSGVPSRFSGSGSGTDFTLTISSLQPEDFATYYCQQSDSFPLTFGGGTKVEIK
notes: also called Fab4
Turning to B1, in [1], the “internalization after 0.5 h, MCF7 cells” value is 28%; the “internalization after 1.0 h, MCF7 cells” value amounted to 42%; the “internalization after 2.0 h, MCF7 cells” value is 61%. In experiment [2], the “EC50 cytotoxicity, Fab + anti-kappa-Fab-PE, CHO-K1/human TPBG, replicate 1” value amounted to 0.3 nM and the “EC50 cytotoxicity, Fab + anti-kappa-Fab-PE, CHO-K1/human TPBG, replicate 2” value was found to be 0.33 nM. Moreover, in experiment [3], the “EC50 cytotoxicity, Fab + anti-kappa-Fab-PE, CHO-K1/minipig TPBG, replicate 1” value was 2.08 nM and the “EC50 cytotoxicity, Fab + anti-kappa-Fab-PE, CHO-K1/minipig TPBG, replicate 2” value was found to be 2.15 nM. For the same molecule, in experiment [4], the “EC50 cytotoxicity, Fab-PE sandwich construct, MCF7” value was found to be 0.935 nM; the “X-fold higher potency compared to TPBG(H8)PE, MCF7, first experiment” value was found to be 1.3 fold; the “X-fold higher potency compared to TPBG(H8)PE, MCF7, second experiment” value worked out at 2.4 fold. Besides, in experiment [5], the “EC50 cytotoxicity, Fab-PE sandwich construct, H1975, replicate 1” value worked out at 0.826 nM; the “EC50 cytotoxicity, Fab-PE sandwich construct, H1975, replicate 2” value was found to be 0.656 nM; the “EC50 cytotoxicity, Fab-PE sandwich construct, H1975, replicate 3” value came out at 0.706 nM. Further, in [6], the EC50 was 0.451 µg/mL. Besides, in experiment [7], the Kd is 0.82 nM, the koff came to 0.000814 s⁻¹ and the kon came to 993000 M⁻¹ s⁻¹. For the same molecule, in experiment [8], the “Fold change pH 7.2 vs pH 5.5” value was 1.2 fold. Further, the “Fold change pH 7.2 vs pH 5.5” value in experiment [9] came to 1.2 fold. In addition, in [10], the Kd came to 1.35 nM, the koff turned out to be 0.000254 s⁻¹ and the kon was determined as 189000 M⁻¹ s⁻¹. In [11], the response was half-maximal at 0.0152 µg/mL (EC50). In experiment [12], the EC50 turned out to be 0.0436 µg/mL.

B2: anti-TPBG antibody 051, Fab fragment (Fab, V domains shown)
VH: EVQLLESGGGLLQPGGSLRLSCAASGFTFSIYWMTWVRQAPGKGLEWVSAISGSGGSTYYADSVKGRFTISRDNSKNTLYLQMNSLRAEDTAVYYCAKDYYSNVYWGQGTLVTVSS
VL: DIQMTQSPSSVSASVGDRVTITCRASQGIYSWLAWYQQKPGKAPKLLIYAASSLQSGVPSRFSGSGSGTDFTLTISSLQPEDFATYYCQQSDSPPYTFGQGTKLEIK
notes: also called Fab3
Regarding B2, in experiment [1], the “internalization after 0.5 h, MCF7 cells” value was found to be 31%; the “internalization after 1.0 h, MCF7 cells” value is 55%; the “internalization after 2.0 h, MCF7 cells” value turned out to be 72%. In [2], the “EC50 cytotoxicity, Fab + anti-kappa-Fab-PE, CHO-K1/human TPBG, replicate 1” value came to 0.28 nM and the “EC50 cytotoxicity, Fab + anti-kappa-Fab-PE, CHO-K1/human TPBG, replicate 2” value was 0.38 nM. In [3], the “EC50 cytotoxicity, Fab + anti-kappa-Fab-PE, CHO-K1/minipig TPBG, replicate 1” value turned out to be 6.18 nM and the “EC50 cytotoxicity, Fab + anti-kappa-Fab-PE, CHO-K1/minipig TPBG, replicate 2” value stood at 5.04 nM. In addition, in [4], the “EC50 cytotoxicity, Fab-PE sandwich construct, MCF7” value amounted to 1.35 nM and the “X-fold higher potency compared to TPBG(H8)PE, MCF7” value stood at 1.1 fold. In [5], the “EC50 cytotoxicity, Fab-PE sandwich construct, H1975, replicate 1” value is 0.522 nM; the “EC50 cytotoxicity, Fab-PE sandwich construct, H1975, replicate 2” value was found to be 0.397 nM; the “EC50 cytotoxicity, Fab-PE sandwich construct, H1975, replicate 3” value was found to be 0.527 nM. The same molecule returned an EC50 in experiment [6] of 0.0575 µg/mL. In addition, in experiment [7], the Kd came out at 0.16 nM, the koff worked out at 7.83e-05 s⁻¹ and the kon is 489000 M⁻¹ s⁻¹. In addition, in experiment [8], the “Fold change pH 7.2 vs pH 5.5” value came to 1.1 fold. The “Fold change pH 7.2 vs pH 5.5” value in experiment [9] came to 1.1 fold. For the same molecule, in experiment [10], the Kd amounted to 2.05 nM, the koff is 0.000193 s⁻¹ and the kon was found to be 94000 M⁻¹ s⁻¹. In [11], this molecule showed an EC50 of 0.0181 µg/mL. The molecule further yielded an EC50 in experiment [12] of 0.175 µg/mL.

B3: anti-TPBG antibody 051 (mAb) (antibody, V domains shown)
VH: EVQLLESGGGLLQPGGSLRLSCAASGFTFSIYWMTWVRQAPGKGLEWVSAISGSGGSTYYADSVKGRFTISRDNSKNTLYLQMNSLRAEDTAVYYCAKDYYSNVYWGQGTLVTVSS
VL: DIQMTQSPSSVSASVGDRVTITCRASQGIYSWLAWYQQKPGKAPKLLIYAASSLQSGVPSRFSGSGSGTDFTLTISSLQPEDFATYYCQQSDSPPYTFGQGTKLEIK
Consider B3, for which the binding result in experiment [13] and in experiment [14] was “binds” in each case.
